Results published in patent US20240317834A1, “COMPOSITIONS AND METHODS FOR NEUROLOGICAL DISEASES” (CODA BIOTHERAPEUTICS, INC., priority 2020, published 2024).

B1: CODA535: engineered chimeric LGIC receptor, L131T, S172D in SEQ ID NO: 33 (protein)
chain: MRCSPGGVWLALAASLLHVSLQGEFQRKLYKELVKNYNPLERPVANDSQPLTVYFSLSLLQIMDVDEKNQVLTTNIWLQMSWTDHYLQWNVSEYPGVKTVRFPDGQIWKPDILLYNSADERFDATFHTNVTVNSSGHCQYLPPGIFKSSCPMDLKNFPMDVQTCKLKFGSWDYGGWSLDLQMQEADISGYIPNGEWDLVGIPGKRSERFYECCKEPYPDVTFTVTMRRRMGYYLIQMYIPSLLIVILSWISFWINMDAAPARVGLGITTVLTMTTQSSGSRASLPKVSYVKAIDIWMAVCLLFVFSALLEYAAVNFVSRQHKELLRFRRKRRHHKSPMLNLFQEDEAGEGRFNFSAYGMGPACLQAKDGISVKGANNSNTTNPPPAPSKSPEEMRKLFIQRAKKIDKISRIGFPMAFLIFNMFYWIIYKIVRREDVHNQ
modifications: synthetic sequence of chimeric LGIC
B2: CODA805: engineered chimeric LGIC receptor, Y115D, S170T in SEQ ID NO: 33 (protein)
chain: MRCSPGGVWLALAASLLHVSLQGEFQRKLYKELVKNYNPLERPVANDSQPLTVYFSLSLLQIMDVDEKNQVLTTNIWLQMSWTDHYLQWNVSEYPGVKTVRFPDGQIWKPDILLDNSADERFDATFHTNVLVNSSGHCQYLPPGIFKSSCPMDLKNFPMDVQTCKLKFGTWSYGGWSLDLQMQEADISGYIPNGEWDLVGIPGKRSERFYECCKEPYPDVTFTVTMRRRMGYYLIQMYIPSLLIVILSWISFWINMDAAPARVGLGITTVLTMTTQSSGSRASLPKVSYVKAIDIWMAVCLLFVFSALLEYAAVNFVSRQHKELLRFRRKRRHHKSPMLNLFQEDEAGEGRFNFSAYGMGPACLQAKDGISVKGANNSNTTNPPPAPSKSPEEMRKLFIQRAKKIDKISRIGFPMAFLIFNMFYWIIYKIVRREDVHNQ
modifications: synthetic sequence of chimeric LGIC

Test system: Lenti-X 293T cells
Experiment: YFP fluorescence quenching anion reporter plate reader assay of engineered receptors stimulated with acetylcholine or a non-native ligand
Type: cell-based
Details: for percent quench of YFP fluorescence, 10 uM ach: acetylcholine 10 uM; for percent quench of YFP fluorescence, 100 uM ach: acetylcholine 100 uM; for percent quench of YFP fluorescence, 1 mM ach: acetylcholine 1 mM; for percent quench of YFP fluorescence, 3 mM ach: acetylcholine 3 mM
Procedure, shortened: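 YFP quench was followed for about 1 min 43 s after ligand delivered in iodide-based ECS, pH 7.2. Values are end-of-read fluorescence (last 10 s) divided by the pre-ligand baseline (15 s). Cells were LX293T, transfected with receptor DNA a day before the assay.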

Molecule | YFP fluorescence quenching using CNL001 (1 nM CNL001, first column) | YFP fluorescence quenching using CNL001 (1 nM CNL001, second column) | YFP fluorescence quenching using CNL001 (10 nM CNL001, first column) | YFP fluorescence quenching using CNL001 (10 nM CNL001, second column) | YFP fluorescence quenching using Facinicline (30 nM fac) | YFP fluorescence quenching using CNL001 (50 nM CNL001, first column) | YFP fluorescence quenching using CNL001 (50 nM CNL001, second column) | YFP fluorescence quenching using ABT-126 (50 nM abt) | YFP fluorescence quenching using CNL001 (100 nM CNL001, first column) | YFP fluorescence quenching using CNL001 (100 nM CNL001, second column) | YFP fluorescence quenching using CNL002 (100 nM CNL002) | YFP fluorescence quenching using ABT-126 (100 nM abt) | YFP fluorescence quenching using AZD-0328 (100 nM azd0328) | YFP fluorescence quenching using ABT-126 (300 nM abt) | YFP fluorescence quenching using AZD-0328 (300 nM azd0328) | YFP fluorescence quenching using Facinicline (300 nM fac) | YFP fluorescence quenching using CNL001 (1 uM CNL001, first column) | YFP fluorescence quenching using CNL001 (1 uM CNL001, second column) | YFP fluorescence quenching using CNL002 (1 uM CNL002) | YFP fluorescence quenching using ABT-126 (1 uM abt) | other results
B1 | 8.736% | 24.572% | 60.552% | 63.09% | −21.36 | 73.242% | 73.889% | −11.09% | 76.147% | 76.21% | 1.23% | −10.37% | −7.02% | −4% | −0.48% | 4.17 | 78.988% | 78.818% | 35.77% | 4.05% | YFP fluorescence quenching using TC-6987 (1 uM tc6987): −21.8; YFP fluorescence quenching using TC-6987 (10 uM tc6987): −27.08; YFP fluorescence quenching using CNL002 (30 uM CNL002): 68.29%; YFP fluorescence quenching using AZD-0328 (30 uM azd0328): 70.16%; YFP fluorescence quenching using Facinicline (30 uM fac): 65.94; YFP fluorescence quenching using TC-6987 (500 uM tc6987): −21.56; percent quench of YFP fluorescence, 30 nM TC-6683 (TC-6683 30 nM): −29.362%; percent quench of YFP fluorescence, 300 nM TC-6683 (TC-6683 300 nM): −28.954%; percent quench of YFP fluorescence, 3 uM TC-6683 (TC-6683 3 uM): −23.708%; percent quench of YFP fluorescence, 30 uM TC-6683 (TC-6683 30 uM): −23.431%; percent quench of YFP fluorescence, 100 uM TC-6683 (TC-6683 100 uM): −18.324%; percent quench of YFP fluorescence, 10 uM ach: −12.24%; percent quench of YFP fluorescence, 100 uM ach: −26.23%; percent quench of YFP fluorescence, 1 mM ach: −1.16%; percent quench of YFP fluorescence, 3 mM ach: 2.97%
B2 | −10.729% | −15.278% | −20.403% | −14.905% | 38.08 | −14.303% | −15.741% | −11.83% | −12.637% | −10.606% | −18.17% | −11.5% | −0.71% | −8.01% | −1.73% | 19.41 | −13.535% | −11.335% | −15.2% | −9.34% | YFP fluorescence quenching using TC-5619/Bradanicline (1 nM brd): −9.78%; YFP fluorescence quenching using TC-5619/Bradanicline (3 nM brd): −12.06%; YFP fluorescence quenching using TC-5619/Bradanicline (10 nM brd): −9.02%; YFP fluorescence quenching using TC-5619/Bradanicline (30 nM brd): −16.3%; YFP fluorescence quenching using TC-5619/Bradanicline (100 nM brd): −7.44%; YFP fluorescence quenching using Facinicline (100 nM fac): −14.37; YFP fluorescence quenching using TC-5619/Bradanicline (300 nM brd): −10.93%; YFP fluorescence quenching using TC-5619/Bradanicline (1 uM brd): −4.55%; YFP fluorescence quenching using TC-6987 (1 uM tc6987): 31.9; YFP fluorescence quenching using Facinicline (10 uM fac): 67.33; YFP fluorescence quenching using TC-6987 (10 uM tc6987): 25.54; YFP fluorescence quenching using CNL002 (30 uM CNL002): −14%; YFP fluorescence quenching using AZD-0328 (30 uM azd0328): 47.39%; YFP fluorescence quenching using Facinicline (30 uM fac): 79.67; YFP fluorescence quenching using TC-6987 (500 uM tc6987): 21.13; percent quench of YFP fluorescence, 10 uM ach: −0.46%; percent quench of YFP fluorescence, 100 uM ach: −4.93%; percent quench of YFP fluorescence, 1 mM ach: −11.18%; percent quench of YFP fluorescence, 3 mM ach: −3.53%
